The text below walks through data of US20240279345A1, “ALPHA 5 BETA 1 INTEGRIN BINDING AGENTS AND USES THEREOF” (PASITHEA THERAPEUTICS CORP., priority 2021, published 2024).

Broadly, the Kd is the equilibrium constant for the complex coming apart. Broadly, the koff is a measure of how fast the partners let go of each other. The kon is a measure of how fast the partners come together.

The target of assay [1] is T1, purified recombinant human α5β1 integrin heterodimer, 6×His tagged (rh-α5β1); Acro Biosystems, cat. no. … (human, UniProt P08648 42-995; P05556 21-728).
T1 construct: bought recombinant heterodimer; also called rh-α5β1-6×His tagged protein; His-tagged-α5β1
T1 sequence (P08648 42-995 limits assumed, form in doubt, chain 1 of 2): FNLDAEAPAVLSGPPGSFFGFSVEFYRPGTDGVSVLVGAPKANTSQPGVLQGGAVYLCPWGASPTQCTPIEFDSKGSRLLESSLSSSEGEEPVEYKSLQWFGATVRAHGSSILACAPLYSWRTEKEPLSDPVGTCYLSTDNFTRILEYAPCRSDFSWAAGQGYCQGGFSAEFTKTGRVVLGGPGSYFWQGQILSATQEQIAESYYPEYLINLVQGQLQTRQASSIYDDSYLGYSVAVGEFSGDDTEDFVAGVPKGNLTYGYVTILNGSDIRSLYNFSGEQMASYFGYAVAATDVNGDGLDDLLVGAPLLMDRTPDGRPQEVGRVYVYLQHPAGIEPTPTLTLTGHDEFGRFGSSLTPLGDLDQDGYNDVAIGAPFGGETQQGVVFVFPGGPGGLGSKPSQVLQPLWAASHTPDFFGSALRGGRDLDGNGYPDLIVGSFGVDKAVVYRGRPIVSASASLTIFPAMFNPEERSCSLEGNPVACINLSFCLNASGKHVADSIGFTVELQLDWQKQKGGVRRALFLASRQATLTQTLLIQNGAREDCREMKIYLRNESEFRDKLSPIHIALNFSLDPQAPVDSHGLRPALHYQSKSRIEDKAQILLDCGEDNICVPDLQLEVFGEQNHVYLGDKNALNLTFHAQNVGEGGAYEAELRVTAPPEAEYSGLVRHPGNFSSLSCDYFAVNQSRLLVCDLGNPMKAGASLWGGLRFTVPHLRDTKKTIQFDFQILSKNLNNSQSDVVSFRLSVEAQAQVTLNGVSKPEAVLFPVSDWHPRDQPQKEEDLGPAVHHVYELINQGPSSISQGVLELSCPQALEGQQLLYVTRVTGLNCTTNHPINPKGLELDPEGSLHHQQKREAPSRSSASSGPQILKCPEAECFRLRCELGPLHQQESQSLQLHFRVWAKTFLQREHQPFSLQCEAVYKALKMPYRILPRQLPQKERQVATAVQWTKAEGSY
T1 sequence (P05556 21-728 limits assumed, form in doubt, chain 2 of 2): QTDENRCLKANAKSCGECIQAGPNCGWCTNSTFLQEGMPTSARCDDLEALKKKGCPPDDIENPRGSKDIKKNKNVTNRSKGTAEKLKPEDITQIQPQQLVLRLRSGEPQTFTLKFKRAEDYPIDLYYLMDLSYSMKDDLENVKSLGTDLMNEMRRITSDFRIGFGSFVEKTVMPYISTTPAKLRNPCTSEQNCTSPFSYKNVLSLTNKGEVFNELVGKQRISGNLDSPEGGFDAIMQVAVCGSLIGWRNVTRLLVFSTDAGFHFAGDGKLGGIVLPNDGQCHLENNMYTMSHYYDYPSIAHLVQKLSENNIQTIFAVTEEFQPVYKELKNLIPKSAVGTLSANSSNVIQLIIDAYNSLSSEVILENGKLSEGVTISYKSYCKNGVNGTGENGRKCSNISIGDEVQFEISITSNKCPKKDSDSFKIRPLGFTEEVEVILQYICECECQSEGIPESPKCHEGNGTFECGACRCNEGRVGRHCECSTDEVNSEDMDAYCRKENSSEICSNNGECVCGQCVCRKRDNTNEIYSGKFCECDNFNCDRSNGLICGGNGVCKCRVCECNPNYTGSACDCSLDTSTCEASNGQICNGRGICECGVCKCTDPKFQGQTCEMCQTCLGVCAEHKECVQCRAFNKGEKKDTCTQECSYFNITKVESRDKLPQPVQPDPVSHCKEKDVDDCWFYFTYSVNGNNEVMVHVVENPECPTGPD
Put plainly: BLI (Octet), supernatant mAb on anti-mouse IgG Fc sensor, 20 nM rh-α5β1. The text has this:
Anti-Mouse IgG Fc biosensors were used to load each clone supernatant. Assay steps were as follows: Sensor Check (30s)-->Load Ab (700s)-->Quench (480s)-->Baseline(480s)-->Ab Assoc. (600s)-->Dissoc. (600s).
(In general: BLI is a label-free optical method that tracks binding on a fibre tip over time.)

Assay [2] concerns the target T1, purified recombinant human α5β1 …. Put plainly: ELISA, inhibition of rh-α5β1-His binding to coated FN, purified hybridoma mAb. Here is the method:
Immulon4 HBX ELISA 96-well plates were coated with FN by incubation overnight at 4° C. with 2.5 μg/mL human FN (R&D Systems, Minneapolis, MN 55413, cat. no. 1918-FN) in 1×PBS (0.01M phosphate buffer and 0.154M NaCl, pH 7.4). Plates were then washed 3 times with Wash Buffer (1× Tris Buffered Saline containing 0.05% Tween20), blocked with 2% BSA in 1×TBS for 2 hours at room temperature (RT). […] Isotype control antibody (Control Ab; Ms IgG2a EMD Millipore Corp, Billerica, MA, cat. no. PP102) was used to normalize data across different assay runs. […] Following 1 hour at RT, the wells were washed 3 times, incubated with biotinylated Anti-6×His-Tag Ab (Invitrogen, Carlsbad, CA, cat. no. MAI-21315-BTIN) at 1:1000 in Standard Diluent for 1 hour, washed 3 times, incubated for 30 minutes with poly-HRP Streptavidin (Thermo Fisher Scientific, Waltham, MA, cat. no. N200), washed 4 times, incubated with TMB substrate (Thermo Fisher Scientific, Waltham, MA, cat. no. N301) for 2-5 minutes, followed by addition of ELISA Stop Solution (Invitrogen, Carlsbad, CA, cat. no. SS04). Absorbance 450 nm was measured. Data points were normalized to the isotype Control Ab values at each concentration and reported as % Absorbance 450 nm normalized to Control Ab. Non-linear regression analysis was used to fit curves (4-parameter) to the data using GraphPad Prism version 9.0.2 (GraphPad Software, LLC, San Diego, CA).
(ELISA stands for enzyme-linked immunosorbent assay.)

Assay [3] deals with T2, recombinant mouse α5β1 (rm-α5β1) (Mus musculus, UniProt P09055+P11688).
T2 construct: purchased R&D Systems 7728-A5
T2 sequence (P11688 45-898 limits assumed): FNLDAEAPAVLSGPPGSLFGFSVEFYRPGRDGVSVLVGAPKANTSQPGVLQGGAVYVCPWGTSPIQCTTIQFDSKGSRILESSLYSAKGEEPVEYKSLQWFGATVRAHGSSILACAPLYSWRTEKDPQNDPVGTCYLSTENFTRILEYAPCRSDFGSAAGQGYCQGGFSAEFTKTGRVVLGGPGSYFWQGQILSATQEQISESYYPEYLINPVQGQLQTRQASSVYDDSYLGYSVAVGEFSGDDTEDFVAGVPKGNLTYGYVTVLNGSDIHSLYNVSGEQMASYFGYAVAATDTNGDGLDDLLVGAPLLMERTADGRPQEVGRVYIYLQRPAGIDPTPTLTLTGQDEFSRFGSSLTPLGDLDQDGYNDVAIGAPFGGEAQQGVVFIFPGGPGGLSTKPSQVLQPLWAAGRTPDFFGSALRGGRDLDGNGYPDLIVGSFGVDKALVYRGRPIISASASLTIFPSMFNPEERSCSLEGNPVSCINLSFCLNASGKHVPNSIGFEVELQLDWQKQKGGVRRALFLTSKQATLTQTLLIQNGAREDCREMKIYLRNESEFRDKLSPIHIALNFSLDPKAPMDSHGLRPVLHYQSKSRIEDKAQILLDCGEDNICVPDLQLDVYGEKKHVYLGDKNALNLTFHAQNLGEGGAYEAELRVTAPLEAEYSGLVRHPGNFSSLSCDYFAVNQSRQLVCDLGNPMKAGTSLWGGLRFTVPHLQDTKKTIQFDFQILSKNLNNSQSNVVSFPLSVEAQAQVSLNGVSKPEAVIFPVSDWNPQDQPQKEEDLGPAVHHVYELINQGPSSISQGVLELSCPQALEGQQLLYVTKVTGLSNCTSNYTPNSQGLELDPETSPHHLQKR
T2 sequence (P11688 899-999 limits assumed): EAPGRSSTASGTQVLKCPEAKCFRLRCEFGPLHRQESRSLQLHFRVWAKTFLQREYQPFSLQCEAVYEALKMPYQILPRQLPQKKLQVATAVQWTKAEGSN
T2 sequence (P09055 21-728 limits assumed): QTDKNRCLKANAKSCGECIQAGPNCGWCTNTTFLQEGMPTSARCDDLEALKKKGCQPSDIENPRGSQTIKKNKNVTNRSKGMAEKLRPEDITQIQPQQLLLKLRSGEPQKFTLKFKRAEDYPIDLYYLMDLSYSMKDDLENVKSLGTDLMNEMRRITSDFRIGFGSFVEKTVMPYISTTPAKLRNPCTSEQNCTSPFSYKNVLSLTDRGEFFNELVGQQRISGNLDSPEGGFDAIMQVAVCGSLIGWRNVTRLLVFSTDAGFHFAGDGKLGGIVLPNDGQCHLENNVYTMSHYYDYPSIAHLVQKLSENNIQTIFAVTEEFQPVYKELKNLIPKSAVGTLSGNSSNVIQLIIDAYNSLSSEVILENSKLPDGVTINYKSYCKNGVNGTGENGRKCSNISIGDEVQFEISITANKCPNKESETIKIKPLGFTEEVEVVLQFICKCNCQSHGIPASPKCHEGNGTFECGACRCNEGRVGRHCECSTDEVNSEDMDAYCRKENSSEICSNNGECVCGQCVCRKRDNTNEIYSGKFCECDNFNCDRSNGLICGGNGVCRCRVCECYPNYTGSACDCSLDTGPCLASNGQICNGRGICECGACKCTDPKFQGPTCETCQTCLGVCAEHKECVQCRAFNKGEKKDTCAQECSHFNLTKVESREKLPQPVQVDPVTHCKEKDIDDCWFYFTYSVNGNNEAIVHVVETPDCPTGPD
Put plainly: Plate-based ELISA cross-reactivity to rm-α5β1. The assay is classed as binding. The settings on record: hybridoma supernatant diluted 1:10; plate coated with rm-α5β1. Here is the method:
(§1) The 249 positive hybridoma supernatants selected as described in Example 1 were screened for reactivity to rh-α5β1 in a plate-based ELISA. Immulon4 HBX ELISA 96-well plates (Thermo Fisher Scientific, Waltham, MA, cat. no. 3855) were coated with rh-α5β1 (R&D Systems, Minneapolis, MN 55413, cat. no. 3230-A5), at 1 μg/mL in PBS supplemented with 0.5 mM MgCl2, MnCl2 and CaCl2 and incubated overnight at 4° C. Plates were washed 3 times with Wash Buffer (1× Tris Buffered Saline containing 0.05% Tween20), blocked with 2% BSA in 1×TBS (made from 10× Thermo Scientific Blocker BSA (10×) in TBS; Thermo Fisher Scientific, Waltham, MA, cat. no. 37520) for 2 hours at room temperature (RT) then incubated with hybridoma supernatants diluted 1:10 with Standard Diluent (2% BSA, 1×TBS, 0.05% Tween20). Following a 1 hour incubation at RT, wells were washed 3 times, incubated with biotinylated goat anti-mouse secondary antibody at 1:8000 dilution (Invitrogen, Carlsbad, CA, cat. no. 62-6540) for 1 hour, washed 3 times, then incubated for 30 minutes with poly-HRP Streptavidin (Thermo Fisher Scientific, Waltham, MA, cat. no. N200), washed 4 times, incubated with TMB (Thermo Fisher Scientific, Waltham, MA, cat. no. N301) for 5-10 minutes, followed by addition of ELISA Stop Solution (Invitrogen, Carlsbad, CA, cat. no. SS04). Absorbance 450 nm was measured.
In addition, hybridomas were tested for cross-reactivity to recombinant mouse α5β1 (rm-α5β1; R&D Systems, Minneapolis, MN 55413; cat. no. 7728-A5) using the same protocol as above except that the plates were coated with rm-α5β1.

The target in assay [4] is T3, recombinant human α5β1 integrin (rh-α5β1; R&D Systems, cat. no. 3230-A5) (human, UniProt P08648 42-995; P05556 21-728).
T3 construct: bought recombinant heterodimer
T3 sequence (P08648 42-995 limits assumed, form in doubt, chain 1 of 2): as the sequence (P08648 42-995 limits assumed, form in doubt, chain 1 of 2) above
T3 sequence (P05556 21-728 limits assumed, form in doubt, chain 2 of 2): as the sequence (P05556 21-728 limits assumed, form in doubt, chain 2 of 2) above
Put plainly: ELISA, coated rh-α5β1, supernatant 1:10. As for the experimental part:
Plates were washed 3 times with Wash Buffer (1× Tris Buffered Saline containing 0.05% Tween20), blocked with 2% BSA in 1×TBS (made from 10× Thermo Scientific Blocker BSA (10×) in TBS; Thermo Fisher Scientific, Waltham, MA, cat. no. 37520) for 2 hours at room temperature (RT) then incubated with hybridoma supernatants diluted 1:10 with Standard Diluent (2% BSA, 1×TBS, 0.05% Tween20). […] Absorbance 450 nm was measured.

For assay [5], the target named is T4, recombinant human α5β1 integrin (rh-α5β1) (Homo sapiens, UniProt P05556+P08648).
T4 construct: purchased R&D Systems 3230-A5
T4 sequence (P08648 42-894 limits assumed): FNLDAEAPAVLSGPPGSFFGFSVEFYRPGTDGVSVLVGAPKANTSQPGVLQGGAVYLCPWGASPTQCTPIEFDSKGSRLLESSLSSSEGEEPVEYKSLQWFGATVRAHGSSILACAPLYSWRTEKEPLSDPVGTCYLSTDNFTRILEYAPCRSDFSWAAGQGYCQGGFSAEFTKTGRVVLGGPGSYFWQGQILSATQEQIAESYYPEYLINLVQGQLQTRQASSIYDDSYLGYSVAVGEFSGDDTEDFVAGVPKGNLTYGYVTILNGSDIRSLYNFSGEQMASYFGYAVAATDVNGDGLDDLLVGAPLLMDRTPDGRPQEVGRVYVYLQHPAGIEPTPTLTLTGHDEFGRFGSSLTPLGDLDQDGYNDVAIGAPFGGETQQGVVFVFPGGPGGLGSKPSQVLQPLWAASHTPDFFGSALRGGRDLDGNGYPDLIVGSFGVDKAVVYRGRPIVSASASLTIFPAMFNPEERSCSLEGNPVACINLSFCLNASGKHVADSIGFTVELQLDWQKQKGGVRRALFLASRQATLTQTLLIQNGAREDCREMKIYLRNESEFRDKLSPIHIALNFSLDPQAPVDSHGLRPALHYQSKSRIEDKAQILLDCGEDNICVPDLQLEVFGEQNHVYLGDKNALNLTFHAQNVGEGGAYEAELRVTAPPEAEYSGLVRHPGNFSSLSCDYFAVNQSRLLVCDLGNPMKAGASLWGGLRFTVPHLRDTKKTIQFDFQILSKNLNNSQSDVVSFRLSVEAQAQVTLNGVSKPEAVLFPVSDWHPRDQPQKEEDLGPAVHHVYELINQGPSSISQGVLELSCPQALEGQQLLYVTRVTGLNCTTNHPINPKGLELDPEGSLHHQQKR
T4 sequence (P08648 895-995 limits assumed): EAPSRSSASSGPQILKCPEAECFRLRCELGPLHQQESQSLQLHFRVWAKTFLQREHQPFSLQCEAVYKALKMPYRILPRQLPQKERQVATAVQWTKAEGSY
T4 sequence (P05556 21-728 limits assumed): as the sequence (P05556 21-728 limits assumed, form in doubt, chain 2 of 2) above
Description: Plate-based ELISA reactivity to rh-α5β1. The assay is classed as binding. As to conditions: selected for further characterization among α5 specific hybridomas (28 selected). Here is the method:
as §1

The next assay addresses rh-α5β1 (Homo sapiens, UniProt P05556+P08648). Description: Competition binding studies by Biolayer Interferometry (epitope groups). The settings on record: for Response (nm) / % Response: secondary mAb pre-mixed with 20 nM rh-α5β1; for % Response: relative to antigen alone; for epitope group: two epitope groups among 6 antibodies. Here is the method: Epitope analysis via competition binding studies was performed using Biolayer Interferometry (BLI) on the 6 antibodies selected as described in Example 5. The anti-α5β1 FN blocking antibodies A2-7A05, C-14D12 and A-15B08 were immobilized on sensors and incubated with each of the other antibodies that had been preincubated with rh-α5β1, to determine whether this antibody-antigen association prevents or allows binding to the antibody on the sensor. The magnitude of observed binding (response) was compared to binding of antigen alone under the same conditions. If the overall response was greater than 120% of antigen binding alone, then the antibodies can pair with each other. If response was less than 80% of response of antigen binding alone, then the antibodies block each other. The protocol was as follows: preincubate the panel of antibodies with antigen (1 hr). Equilibrate the sensor (30 seconds (s))-->Load lead Ab on the sensor (700s)--->Quench (480s)--->Read baseline (480s)-->measure preincubated Ab+Ag association with loaded sensor (600s).

Sequence of rh-α5β1 (P08648 42-894 limits assumed): as the sequence (P08648 42-894 limits assumed) above
Sequence of rh-α5β1 (P08648 895-995 limits assumed): as the sequence (P08648 895-995 limits assumed) above
Sequence of rh-α5β1 (P05556 21-728 limits assumed): as the sequence (P05556 21-728 limits assumed, form in doubt, chain 2 of 2) above

B1: A-15B08 (antibody, V domains shown)
VH: QVQLKESGPGLVAPSQSLSITCTISGFSLTSYGVHWVRQPPGKGLEWLVVIWSDGSTTYNSTLKSRLSISKDNSKSQVFFKMNSLQTDDTAMYYCARHYDYDGDWFAYWGQGTLVTVSA
VL: QIVLTQSPAIMSASLGERVTMTCTASSRVSSNSLHWYQQKPGSSPKLWIYSTSNLASGVPARFSGSGSGTSYSLTISSMEAEDAATYYCHQYLRSPPTFGGGTKLEIK
notes: mouse hybridoma antibody; also called A-15B08 (hybridoma)
Consider B1, for which, in assay [1], the Kd is 1.31 nM, the koff worked out at 0.000431 s⁻¹ and the kon came to 328000 M⁻¹ s⁻¹. The “% Max Inhibition” value in assay [2] worked out at 96%.

B2: A-3A08: hybridoma clone positive on K562 cells (antibody, V domains shown)
VH: QVQLKESGPGLVAPSQSLSITCTISGFSLTTYGVHWVRQPPGKGLEWLVVIWSDGSTTYNSALKSRLNITKDNSKSQVFLKMNSLQTDDTAMYYCVRHGGLLRRDAMDYWGQGTSVTVSS
VL: QIVLTQSPAIMSASLGERVTMTCTASSSVSSNSFHWYQQKPGSSPKLWLYSTSNLASGVPARFSGSGSGTSYSLTISSMEAEDAATYYCHQYLRSPPTFGGGTKLEIK
For the molecule B2, the “Absorbance 450 nm Mouse α5β1” value in assay [3] is 0.6708.

B3: C-14D12 (antibody, V domains shown)
VH: QVQLKESGPDLVAPSQSLSITCTVSGFSLTDYGVHWVRQPPGKGLEWLVVIWSDGSTTYNSALKSRLSITKDTSKRQVFLKMNSLQTDDTAMYYCARHAPSFIRYGSRYDALDYWGQGTSVTVSS
VL: QIVLTQSPAIMSASLGERVTLTCTASSSVTSSFLHWYQQKPGSSPKLWIYSTSNLASGVPARFSGSGSGTSYSLTISSMEAEDAATYYCHQYHRSPPTFGGGTKLEIK
notes: mouse hybridoma antibody; also called C-14D12 (hybridoma)
For B3, in assay [1], the dissociation constant Kd was 0.379 nM, the koff stood at 9.94e-05 s⁻¹ and the kon amounted to 263000 M⁻¹ s⁻¹. Besides, the “% Max Inhibition” value in assay [2] turned out to be 96%.

B4: A2-3B06 (antibody, V domains shown)
VH: QVQLKESGPGLVAPSQSLSITCTISGFSLTTYGVHWVRQPPGKGLEWLVVIWSDGSTTYNSALKSRLNITKDNSKSQVFLKMNSLQTDDTAMYYCVRHGGLLRRDAMDYWGQGTSVTVSS
VL: QIVLTQSPAIMSASLGERVTMTCTASSSVSSNSFHWYQQKPGSSPKLWLYSTSNLASGVPARFSGSGSGTSYSLTISSMEAEDAATYYCHQYLRSPPTFGGGTKLEIK
notes: mouse hybridoma antibody
For the molecule B4, in assay [4], the “Absorbance 450 nm” value stood at 2.03. Besides, in assay [1], the Kd came to 4.74 nM, the koff was determined as 0.00137 s⁻¹ and the on-rate constant (kon) is 289000 M⁻¹ s⁻¹. In addition, the “% Max Inhibition” value in assay [2] worked out at 93%.

B5: A2-5D10: anti-α5β1 antibody, VH SEQ ID NO:51, VL SEQ ID NO:52 (antibody, V domains shown)
VH: QVQLKESGPGLVAPSQSLSITCTISGFSLTSYGVHWVRQPPGKGLEWLVVIWSDGSTTYNSTLKSRLSISKDNSKSQVFLKMNSLQTDDTAMYYCARHYDYDGDWFAYWGQGTLVTVSA
VL: QILLTQSPAIMSASLGERVTMTCTASSSVSSRCLHWYQQKPGSSPKLWIYSTSNLASGVPARFRGSGSGTSYSLTISSMEAEDAATYYCHQYYRSPPTFGGGTKLEIK
modifications: A2-5D10 VH Sequence; A2-5D10 VL Sequence
As to B5, the “Selected Human α5 Specific” value in assay [5] is given as “Yes”. The “binding of rh-α5β1 complexed with antibody to A2-7A05 on the sensor” value with rh-α5β1 (antibody preincubated with rh-α5β1, A2-7A05 immobilized on sensor) is “able to bind”. Moreover, the “Response (nm)” value with rh-α5β1 (immobilized mAb A2-7A05) is given as 0.17 nm; in the assay with rh-α5β1 (immobilized mAb A-15B08), 0.22 nm; with rh-α5β1 (immobilized mAb C-14D12) it was 0.24 nm. The “% Response” value is 448.38% in the assay with rh-α5β1 (immobilized mAb A2-7A05), 106.82% with rh-α5β1 (immobilized mAb A-15B08) and 106.12% with rh-α5β1 (immobilized mAb C-14D12). Also, the epitope group result with rh-α5β1 was “second group”.

B6: A2-7F01: anti-α5β1 antibody, VH SEQ ID NO:91, VL SEQ ID NO:92 (antibody, V domains shown)
VH: QVQLQQPGAELVKPGASVKLSCKASGYTFTIYWINWVKQRPGQGLEWIGNIYPGSSSTNYNEKFKTKATLTVDTSSSTAYMQLSSLTSDDSAVYYCAITGTGGFAYWGQGTLVTVSA
VL: ENVLTQSPAIMSASLGEKVTMSCRASSSVNYMYWYQQKSDASPKLWIYFTSSLAPGVPTRFSGSGSGNSFSLTISSMEGEDAATYYCQQLTGSPFTFGSGTRLEIK
modifications: A2-7F01 VH Sequence; A2-7F01 VL Sequence
Consider B6, for which, in assay [5], the “Selected Human α5 Specific” value is on record as “Yes”. In addition, in the assay with rh-α5β1 (antibody preincubated with rh-α5β1, A-15B08 immobilized on sensor), the “binding of rh-α5β1 complexed with antibody to A-15B08 on the sensor” value is listed as “able to bind”. Also, in the assay with rh-α5β1 (antibody preincubated with rh-α5β1, C-14D12 immobilized on sensor), the “binding of rh-α5β1 complexed with antibody to C-14D12 on the sensor” value is given as “able to bind”. Moreover, the “Response (nm)” value in the assay with rh-α5β1 (immobilized mAb A2-7A05) is −0.17 nm; with rh-α5β1 (immobilized mAb A-15B08) it was 0.29 nm; with rh-α5β1 (immobilized mAb C-14D12), 0.30 nm. Moreover, the “% Response” value with rh-α5β1 (immobilized mAb A2-7A05) is −472.70%; with rh-α5β1 (immobilized mAb A-15B08) it was 142.59%; with rh-α5β1 (immobilized mAb C-14D12), 133.09%. For the same molecule, the epitope group entry with rh-α5β1 is recorded as “one group”.
